Results as given in patent publication US20250009856A1, “METHODS FOR TREATING RESPIRATORY DISEASES” (MUCPharm Pty Ltd, priority 2021, published 2025).

B1: DNASE: enzyme hydrolysing phosphodiester bonds of dsDNA; marketed under the brand name Pulmozyme for cystic fibrosis sputa (protein, UniProt P24855 23-282, looked up)
Deoxyribonuclease-1: LKIAAFNIQTFGETKMSNATLVSYIVQILSRYDIALVQEVRDSHLTAVGKLLDNLNQDAPDTYHYVVSEPLGRNSYKERYLFVYRPDQVSAVDSYYYDDGCEPCGNDTFNREPAIVRFFSRFTEVREFAIVPLHAAPGDAVAEIDALYDVYLDVQEKWGLEDVMLMGDFNAGCSYVRPSQWSSIRLWTSPTFQWLIPDSADTTATPTHCAYDRIVVAGMLLRGAVVPDSALPFNFQAAYGLSDQLAQAISDHYPVEVMLK

Tests used:
[1] = system: New Zealand white rabbits; assay: Pilot study: safety of inhaled bromelain in rabbits; settings: rabbit, in vivo
From the text: In this pilot study. […] Ten minutes waiting period was kept between Salbutamol administration and treatment. Each rabbit received one cumulative dose of bromelain using a nebulizer and a v-gel supraglottal airway device as below. The pilot study was divided into 2 experiments as follows:
Experiment 1: Two rabbits were used in the first bromelain aerosol administration experiment. The first rabbit received an aerosol of physiological saline solution (0.9% NaCl), the second rabbit received aerosolized bromelain 0.1 mg/mL (accumulative dose of 0.19 mg in 1.9 mL saline), over 16 min inhalation period (Table 1).
Experiment 2: Three rabbits were used in the second bromelain aerosol administration experiment. The first rabbit received an aerosol of physiological saline solution (0.9% NaCl), the second one received aerosolized low dose of bromelain 0.01 mg/mL (accumulative dose of 0.025 mg bromelain in 2.5 mL saline), the third rabbit received aerosolized high dose of bromelain 0.1 mg/mL (accumulative dose of 0.25 mg bromelain in 2.5 mL saline), over 11 min inhalation period.
Rabbits were euthanized 48 h post-treatment using IV Sodium pentobarbitone 100 mg/kg while animals were sedated using isoflurane.

[2] = Dynamic viscosity after mixing with BromAc, DNase and combinations; settings: for Dynamic viscosity (¥): heads: BR(25 ug/ml), NAC(20 mg/ml), BR(250 ug/ml) + NAC(20 ug/ml)
Procedure: (§1) Artificial sputa was prepared following methodology with ingredients as in earlier experiments. To 1.5 ml of artificial sputa in a vial was added 0.5 ml of reagent containing the required bromelain, NAC, DNase and their combinations. Control vials included 0.5 ml of PBS only. The mixture was vortex mixed and incubated in a shaker water bath at 37 deg C. At the end of 1 hour, the samples were retrieved, vortex mixed and equilibrated to ambient room temperature before measuring dynamic viscosity and pipette flow.
(§2) Dynamic viscosity was determined using the capillary tube method as in earlier experiments, whilst the pipette flow was evaluated using a 0.5 ml pipette inclined at 60 deg angle. The pipette flow was calculated as shown below.

[3] = Sputum flow speed after mixing with BromAc, DNase and combinations; settings: BR 250 ug/ml, NAC 20 mg/ml where present, 1 hour, 37 deg C
Procedure: as §1, §2
Pipette flow (€)=0.45 ml sputa/time to empty (sec).

| Molecule | activities, food and drink intake, breathing [1] | effect on dynamic viscosity compared with other treatment groups ([2]; DNase 2-20 μg/ml) | Dynamic viscosity (¥) ([2]; plus DNASE 2.0 ug/ml) | Dynamic viscosity (¥) ([2]; plus DNASE 4.0 ug/ml) | Dynamic viscosity (¥) ([2]; plus DNASE 6.0 ug/ml) | Dynamic viscosity (¥) ([2]; plus DNASE 8.0 ug/ml) | Dynamic viscosity (¥) ([2]; plus DNASE 20 ug/ml) | Dynamic viscosity (¥) ([2]; plus DNASE 10. ug/ml) | Sputum flow speed (€) ([3]; plus DNASE 2.0 ug/ml) | Sputum flow speed (€) ([3]; plus DNASE 4.0 ug/ml) | Sputum flow speed (€) ([3]; plus DNASE 6.0 ug/ml) | Sputum flow speed (€) ([3]; plus DNASE 8.0 ug/ml) | Sputum flow speed (€) ([3]; plus DNASE 20 ug/ml) | Sputum flow speed (€) ([3]; plus DNASE 10. ug/ml) |
| --- | --- | --- | --- | --- | --- | --- | --- | --- | --- | --- | --- | --- | --- | --- |
| Bromelain | normal |  |  |  |  |  |  |  |  |  |  |  |  |  |
| B1 |  | less compared to all the other treatment groups | 1.64 cSt | 1.60 cSt | 1.57 cSt | 1.514 cSt | 1.379 cSt | 1.472 cSt | 0.0627 mL/s | 0.075 mL/s | 0.082 mL/s | 0.09 mL/s | 0.1125 mL/s | 0.1044 mL/s |
